# Test results from patent USRE41461E1, “Purification, composition and specificity of Heparinase I, II, and III from Flavobacterium heparinum” (Massachusetts Institute of Technology, priority 1992, dated 2010).
# B1: Heparin lyase I: heparin lyase I (heparinase, EC 4.2.2.7) purified to homogeneity from Flavobacterium heparinum (protein, UniProt Q05819 22-384, looked up)
# Heparin lyase I: QQKKSGNIPYRVNVQADSAKQKAIIDNKWVAVGINKPYALQYDDKLRFNGKPSYRFELKAEDNSLEGYAAGETKGRTELSYSYATTNDFKKFPPSVYQNAQKLKTVYHYGKGICEQGSSRSYTFSVYIPSSFPDNATTIFAQWHGAPSRTLVATPEGEIKTLSIEEFLALYDRMIFKKNIAHDKVEKKDKDGKITYVAGKPNGWKVEQGGYPTLAFGFSKGYFYIKANSDRQWLTDKADRNNANPENSEVMKPYSSEYKTSTIAYKMPFAQFPKDCWITFDVAIDWTKYGKEANTILKPGKLDVMMTYTKNKKPQKAHIVNQQEILIGRNDDDGYYFKFGIYRVGNSTVPVTYNLSGYSETAR
# Key:
# [1] = Activity remaining after incubation in buffers for 24 h at 37° C.; assay type: physicochemical; conditions: each of six buffers
# Procedure: The buffer giving optimum activity for each heparin lyase was selected by testing buffers with buffering capacity near the pH optima calculated in the previous experiments. These buffers were: Tris-HCl, sodium phosphate, HEPES, MOPS, TES, and BTP-CHl. Each buffer was prepared at 50 mM, and its pH was adjusted with hydrochloric acid or sodium hydroxide to 6.9 for heparin lyase II acting on heparin, 7.15 for heparin lyase I, 7.3 for heparin lyase II acting on heparan sulfate, and 7.6 for heparin lyase III. The heparin lyase assay solutions were made by diluting enzyme in 50 mM sodium phosphate buffer adjusted to the appropriate pH as previously described. Heparin lyase activity was determined in each buffer. Activity was assayed both immediately after addition to each buffer and following incubation for 24 h at 37° C.
# [2] = cited from earlier work
# [3] = Isoelectric focusing on agarose gel; assay type: physicochemical; conditions: agarose IEF
# Procedure: IEF gel electrophoresis was run on pre-cast agarose gels (85×100 mm). Two electrode wicks were wetted with 1M phosphoric acid (anolyte) and 1M sodium hydroxide (catholyte). Electrophoresis was at 5 watts for 5 min, then at 10 watts for 1 h until the voltage was constant at 1200 V. The gel was immediately fixed in 15% aqueous trichloroacetic acid, blotted and rinsed with water, dried overnight, stained by using Coomassie G-250, and destained.
# [4] = Temperature stability of lyase activity; assay type: physicochemical; conditions: 30° C., protein 650 ng/ml
# Procedure: Lyase assay stock solutions were prepared in the appropriate buffer and placed in water baths at the following temperatures: heparin lyase I at 30° C., heparin lyase II at 35° C., and heparin lyase III at both 35° and 40° C. […]
# [5] = Stability toward storage, freeze thawing and lyophilization; assay type: physicochemical; conditions: for activity retained: absence of excipient
# Procedure: […] […] These lyase solutions were then divided into 3 equal aliquots, and one of each was subjected to either freeze thawing, lyophilization, or retained as a control in an ice bath. The activities of heparin lyases I-III were determined in the presence and absence of excipients after: 1) brief storage at 4° C.; 2) freezing at −70° C. and thawing; and 3) −70° C. freezing, lyophilization, and reconstituting with an equal volume of cold water.
# [6] = Heparin lyase activity: effect of divalent metals and added salt, substrate specificity (each lyase on its substrates); assay type: biochemical
# Procedure: The spectrophotometer was adjusted to the optimum temperature of the particular lyase being assayed. A 700 μl quartz microcuvette containing 400 μg of substrate in 50 mM sodium phosphate buffer (containing 100 mM sodium chloride for heparin lyase I) was thermally equilibrated. A measured quantity of lyase was added, bringing the final volume to 400 μl and the cuvette was gently mixed. The microcuvette was then immediately returned to the spectrophotometer and the change of absorbance at 232 nm was measured at 10 seconds intervals over 3 min. The activity was measured from the change of absorbance/unit time using an extinction coefficient of 3800 M^−1 for products. The specific activity was then calculated by dividing the micromoles of product produced per minute by the milligrams of protein in the cuvette. The molecular weights used for heparin, heparan sulfate, and the chondroitin sulfates were 14,000, 20,000 and 25,000, respectively, Rice, K. G., and Linhardt, R. J. (1989) Carbohydr. Res. 190, 219-233. Protein concentration was measured by the Bradford assay, Bradford, M. M. (1976) Anal. Biochem. 72, 248-254, based on a bovine serum albumin standard curve.
# BTP-HCl buffer (50 mM) was prepared containing either 10 mM calcium chloride, 10 μM or 1 mM copper (II) chloride, 10 μM and 1 mM mercury (II) chloride, and 1 mM zinc (II) chloride. Each solution was adjusted to the optimum pH for the lyase being tested, and the activity of the heparin lyases was measured in the presence and absence of divalent metals.
# The salt concentration for optimum activity was investigated. Sodium chloride, potassium chloride, and sodium and potassium acetate were used to differentiate between ionic strength and specific ion affects. Added salt concentrations varied between 0 and 500 mM and were prepared in 50 mM sodium phosphate buffer after which the pH was adjusted to each enzyme's optimum and the heparin lyase activity was measured.
# Each heparin lyase was added to a solution of complex polysaccharides (1 mg/ml) under optimized assay conditions, and the reaction was monitored at 232 nm for 30 min. The amount of purified lyase used was sufficient for complete depolymerization of heparin or heparan sulfate substrates within 30 min. The initial rate of depolymerization of each polysaccharide was measured, the reaction was then continued for 24 h, and the final level of polysaccharide depolymerization was assessed by measuring the final absorbance at 232 nm and expressed as percent activity.
# [7] = Heparin lyase activity assay (change of absorbance at 232 nm), heparin as substrate; assay type: biochemical, porcine
# Procedure: (§1) The spectrophotometer was adjusted to the optimum temperature of the particular lyase being assayed. […] A measured quantity of lyase was added, bringing the final volume to 400 μl and the cuvette was gently mixed. The microcuvette was then immediately returned to the spectrophotometer and the change of absorbance at 232 nm was measured at 10 seconds intervals over 3 min. […] The specific activity was then calculated by dividing the micromoles of product produced per minute by the milligrams of protein in the cuvette. […] G., and Linhardt, R. J. (1989) Carbohydr. Res. 190, 219-233. Protein concentration was measured by the Bradford assay, Bradford, M. M. (1976) Anal. Biochem. 72, 248-254, based on a bovine serum albumin standard curve. […] The activities of each lyase (I acting on heparin, II acting on both heparin and heparan sulfate, and III acting on heparan sulfate) were then determined at different pH values. The buffer giving optimum activity for each heparin lyase was selected by testing buffers with buffering capacity near the pH optima calculated in the previous experiments. These buffers were: Tris-HCl, sodium phosphate, HEPES, MOPS, TES, and BTP-CHl. […] The heparin lyase assay solutions were made by diluting enzyme in 50 mM sodium phosphate buffer adjusted to the appropriate pH as previously described. Heparin lyase activity was determined in each buffer. Activity was assayed both immediately after addition to each buffer and following incubation for 24 h at 37° C. The salt concentration for optimum activity was investigated. Sodium chloride, potassium chloride, and sodium and potassium acetate were used to differentiate between ionic strength and specific ion affects. […] The temperature was adjusted in a temperature-regulated spectrophotometer and equilibrated for 10 min before the assay was started. Michaelis-Menten constants were determined using the optimized conditions. The final absorbance value for total depolymerization was divided by 20 to find a value that represented 5% reaction completion. The purified lyase preparations were diluted so that 5% of total depolymerization would be reached only at the end of a 3-min assay. The reaction velocities at specific molar concentrations for each lyase and their substrates were used for kinetic analysis using EZ-FIT hyperbolic curve-fitting program of […]. (1988) Anal. Biochem. 174, 437-447). Substrate solutions were prepared from 50 mg/ml heparin and 40 mg/ml for heparan sulfate stock solutions. […] The amount of purified lyase used was sufficient for complete depolymerization of heparin or heparan sulfate substrates within 30 min. The initial rate of depolymerization of each polysaccharide was measured, the reaction was then continued for 24 h, and the final level of polysaccharide depolymerization was assessed by measuring the final absorbance at 232 nm and expressed as percent activity.
# [8] = Heparin lyase activity assay (change of absorbance at 232 nm), heparan sulfate as substrate; assay type: biochemical; conditions: final level of depolymerization, 24 h
# Procedure: as §1
molecule,measurement,setting,value
B1,"activity after incubation, % of initial value",[1],1-20%
same,pH optimum (reported),"[2]; Yang et al. (1985), Linker and co-workers, assay times up to 6 h",6.5
same,Vmax (reported),[2]; literature,19.7 μmol/min/mg protein
same,pI (isoelectric point),[3],9.1-9.2
same,time in which 80% of activity was lost,[4],5 h
same,activity retained,[5]; after a single freeze-thawing,45%
same,activity retained,[5]; after freeze-drying,25%
same,activity retained,[5]; stored at 4° C.,50%
same,retention of activity,[5]; addition of 2.0 mg/ml BSA,greater than 85%
same,retention of activity,[5]; addition of 5% lactose,40-80%
same,substrates acted on,[6],act on both heparin and heparan sulfate
same,effect of mercury on activity,[6]; 10 μM mercury (II) chloride,markedly reduced
same,effect of copper on activity,[6]; 1 mM copper (II) chloride,markedly reduced
same,effect of mercury on activity,[6]; 1 mM mercury (II) chloride,markedly reduced
same,effect of zinc on activity,[6]; 1 mM zinc (II) chloride,slightly reduced
same,effect of calcium on activity (increase),"[6]; 10 mM calcium chloride, 50 mM BTP-HCl",30%
same,effect of added salt on activity,"[6]; increasing salt concentration, 0-500 mM",increased activity
same,added salt concentration (ionic strength) for optimum activity,[7]; 0-500 mM salt in 50 mM sodium phosphate buffer,100 mM
same,Unit/mg (specific activity),"[7]; final GPC-HPLC purification step, acting on heparin",130 Unit/mg
same,average number of sites acted at in the heparin polymer,"[7]; final level of depolymerization, 24 h",7 sites
same,"initial activity in six buffers (Tris-HCl, sodium phosphate, HEPES, MOPS, TES, BTP-HCl)","[7]; heparin, 50 mM buffer at optimum pH","reduced activity in MOPS, TES, and HEPES"
same,temperature for maximum activity,"[7]; heparin, 50 mM sodium phosphate at optimum pH, 15-55° C.",35 °C
same,Km,"[7]; heparin, I: 30° C., pH 7.15, 100 mM sodium chloride, II: 35° C., pH 7.3, value ± standard error, read-out: Km(app)",17.8 ± 1.5 µM
same,Vmax,"[7]; heparin, optimized conditions, value ± standard error",219 ± 3.48 μmol/min mg protein
same,pH optimum for activity,[7]; on heparin,7.15
same,specific activity,"[7]; purified lyase, toward heparin",130 units/mg
same,average number of sites acted at in the heparan sulfate polymer,[8],5 sites
